# According to PMC11243334, “Synthesis and Evaluation of the First ^68Ga-Labeled C-Terminal Hydroxamate-Derived Gastrin-Releasing Peptide Receptor-Targeted Tracers for Cancer Imaging with Positron Emission Tomography” (Molecules, 2024):
# Where two headings read alike, the source gives them in different places.
# Columns and labels:
# [1] = molecular target: T1, GRPR (Homo sapiens, UniProt P30550); assay: Fluorometric intracellular calcium release assay in PC-3 cells; format: cell-based; conditions: for Ca2+ mobilization, relative fluorescence units (RFUs = max − min): 50 nM ligand, FLIPR Calcium 6, signal acquired 2 min, n = 3
# T1 construct: host or cells: PC-3 human prostate adenocarcinoma cells
# T1 sequence (P30550 whole entry): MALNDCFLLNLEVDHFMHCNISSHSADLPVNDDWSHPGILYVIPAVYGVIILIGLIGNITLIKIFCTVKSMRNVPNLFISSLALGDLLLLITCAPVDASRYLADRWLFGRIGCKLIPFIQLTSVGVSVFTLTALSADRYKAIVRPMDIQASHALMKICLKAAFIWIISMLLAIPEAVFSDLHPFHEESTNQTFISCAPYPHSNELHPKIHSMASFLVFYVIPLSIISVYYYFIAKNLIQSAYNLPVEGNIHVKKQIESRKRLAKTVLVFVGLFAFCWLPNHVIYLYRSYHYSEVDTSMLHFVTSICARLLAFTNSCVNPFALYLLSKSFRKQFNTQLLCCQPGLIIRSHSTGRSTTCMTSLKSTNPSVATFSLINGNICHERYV
# Protocol: The antagonist/agonist characteristics of Ga-LW02075 and Ga-LW02050 were determined following previously published procedures. A 96-well clear-bottomed black plate was seeded with 5 × 10^4 PC-3 cells/well in 100 μL growth media 24 h prior to the assay. A calcium-sensitive dye (FLIPR Calcium 6 assay kit from Molecular Devices, San Jose, CA, USA) dissolved in the loading buffer (100 μL/well) was added into the plate followed by 1 h incubation at 37 °C. Then, the plate was transferred into a FlexStation 3 microplate reader (Molecular Devices, San Jose, CA, USA) to record the fluorescent signals. Ga-complexed SB3 derivatives (50 nM), [D-Phe^6,Leu-NHEt^13,des-Met^14]Bombesin(6-14) (50 nM, antagonist control), bombesin (50 nM, agonist control), adenosine triphosphate (ATP, 50 nM, positive control), or DPBS (blank control) were added. The fluorescent signals were acquired for 2 min (λEx = 485 nm; λEm = 525 nm; n = 3). The relative fluorescent units (RFUs = max − min) were calculated to determine the agonistic/antagonistic characteristics of the tested ligands.
# [2] = physchem; conditions: n-octanol/DPBS, pH 7.4
# Protocol: LogD7.4 values of [^68Ga]Ga-LW02075, [^68Ga]Ga-LW02050, and [^68Ga]Ga-SB3 were measured via the shake flask method. An aliquot of the ^68Ga-labeled tracer (~1.85 MBq) was added to a 15 mL falcon tube containing 3 mL of n-octanol and 3 mL of DPBS (pH 7.4) followed by 1 min of vortex (n = 3). After that, the mixture was centrifuged at 5000 rpm for 10 min, and samples of the n-octanol (1 mL) and buffer (1 mL) layers were collected and counted on a Perkin Elmer (Waltham, MA, USA) Wizard2 2480 automatic gamma counter. The LogD7.4 values of [^68Ga]Ga-LW02075, [^68Ga]Ga-LW02050, and [^68Ga]Ga-SB3 were calculated following the equation: LogD7.4 = log10[(counts in the n-octanol phase)/(counts in the buffer phase)].
# [3] = tested on: PC-3 tumor xenografts; assay: PET/CT imaging in mice bearing PC-3 tumor xenografts; format: in vivo; conditions: 1 h post injection, mice
# Protocol: (§1) Imaging and biodistribution studies were performed on male NOD.Cg-Rag1^tm1Mom Il2rg^tm1Wjl/SzJ (NRG) mice following previously published procedures. The experiments were conducted following the guidelines established by the Canadian Council on Animal Care and approved by Animal Ethics Committee of the University of British Columbia. The mice were sedated (2.5% isoflurane in oxygen) and injected with 5 × 10^6 PC-3 cells (100 µL; 1:1 PBS/Matrigel) subcutaneously behind the left shoulder. The tumor-bearing mice were used for PET/CT imaging and biodistribution studies when the tumor grew to 5–8 mm in diameter.
# PET/CT imaging experiments were performed on a Siemens (Knoxville, TN, USA) Inveon micro PET/CT scanner. Each tumor-bearing mouse was injected with ~3–6 MBq of ^68Ga-labeled tracer through a lateral caudal tail vein under anaesthesia. At around 50 min post injection, a 10 min CT scan was obtained first for localization and attenuation correction after segmentation for reconstructing the PET image, followed by a 10 min static PET scan.
# [4] = Ex vivo biodistribution in PC-3 tumor-bearing mice; conditions: male, mouse, iv, total radioactivity, 1 h post injection, mean ± SD, n = 4; for tissue uptake at 1 h: NOD.Cg-Rag1^tm1Mom Il2rg^tm1Wjl/SzJ (NRG); for tissue to tissue ratio at 1 h: NOD.Cg-Rag1tm1Mom Il2rgtm1Wjl/SzJ (NRG)
# Protocol: Biodistribution studies were conducted for ^68Ga-labeled SB3, LW02075 and LW02050 in PC-3 tumor-bearing mice (n = 4).
# as §1
# For biodistribution studies, the mice were injected with the radiotracer (~2–4 MBq), as described above. Blocking of [^68Ga]Ga-LW02075 and [^68Ga]Ga-LW02050 was conducted by co-injection with 100 μg nonradioactive Ga-LW02075 and Ga-LW02050, respectively, through a lateral caudal tail vein under anaesthesia. At 1 h post injection, the mice were sedated and euthanized by CO2 inhalation. Blood was collected via cardiac puncture, and organs/tissues of interest were collected, weighed, and counted on a Perkin Elmer (Waltham, MA, USA) Wizard2 2480 automatic gamma counter.
# [5] = molecular target: GRPR; conditions: ref 14 (Devin et al.); cited from earlier work
# Text: Most of the reported GRPR-targeted agonist and antagonist sequences contain a C-terminal amide. […] To the best of our knowledge, no GRPR-targeted radioligands containing a C-terminal hydroxamate have ever been reported. Therefore, the goal of this study was to evaluate the potential of C-terminal hydroxamate- ...
# [6] = molecular target: T1, GRPR; assay: In vitro competition binding assay, displacement of [125I-Tyr4]Bombesin from PC-3 cells; conditions: GRPR-expressing PC-3 cells, 0.01 nM [125I-Tyr4]Bombesin, 1 h at 37 °C, ligand 10 μM to 1 pM, n = 3
# Protocol: The Ki values of Ga-LW02075, Ga-LW02050, and Ga-SB3 were measured using GRPR-expressing PC-3 prostate cancer cells via a cell-based competition binding assay. Ga-SB3, Ga-LW02075, and Ga-LW02050 inhibited the binding of [^125I-Tyr^4]Bombesin towards PC-3 cells in a dose-dependent manner (Figure 2).
# Inhibition constants (Ki) of Ga-SB3, Ga-LW02075, and Ga-LW02050 toward GRPR were measured by in vitro competition binding assay following previously published procedures. The assays were conducted in triplicate with varied concentrations (10 μM to 1 pM) of Ga-SB3, Ga-LW02075, and Ga-LW02050. Briefly, 2 × 10^5 cells/well of PC-3 cells were seeded in 24-well poly-D-lysine plates 24 h prior to the assay. The growth medium was replaced with 400 μL of reaction medium (RPMI 1640 containing 2 mg/mL bovine serum albumin (BSA) and 20 mM HEPES), followed by 1 h incubation at 37 °C. The tested ligands in 50 μL reaction medium and 0.01 nM [^125I-Tyr^4]Bombesin in 50 μL reaction medium were added into the wells, and then incubated at 37 °C with moderate agitation for 1 h. […] Data analysis was performed using nonlinear regression with GraphPad (San Diego, CA, USA) Prism 10 software (Version 10.1.1).
compound,measurement,setting,value
"Nc1ncnc2c1ncn2[C@@H]1O[C@H](COP(=O)(O)OP(=O)(O)OP(=O)(O)O)[C@@H](O)[C@H]1O [ATP, adenosine triphosphate]","Ca2+ mobilization, relative fluorescence units (RFUs = max − min)",[1],271 ± 24.4 RFUs
"CCNC(=O)[C@H](CC(C)C)NC(=O)[C@H](Cc1c[nH]cn1)NC(=O)CNC(=O)[C@@H](NC(=O)[C@H](C)NC(=O)[C@H](Cc1c[nH]c2ccccc12)NC(=O)[C@H](CCC(N)=O)NC(=O)[C@@H](Cc1ccccc1)NC(=O)COCC(=O)Nc1ccc(CNC(=O)CN2CCN(CC(=O)O)CCN(CC(=O)O)CCN(CC(=O)O)CC2)cc1)C(C)C [[^68Ga]Ga-SB3, [^68Ga]Ga-DOTA-pABzA-DIG-D-Phe-Gln-Trp-Ala-Val-Gly-His-Leu-NHEt, metal not drawn, reference compound]",logD,[2],-2.47 ± 0.09
same,Excretion pathway in PET images,[3],excreted primarily through the renal pathway
same,Pancreas in PET images,[3],high pancreas uptake
same,tissue uptake at 1 h,"[4]; PC-3 tumor, read-out: PC-3 tumor uptake",6.98 ± 1.36 %ID/g
same,tissue uptake at 1 h,"[4]; adrenal glands, read-out: Adrenal glands uptake",2.07 ± 0.66 %ID/g
same,tissue uptake at 1 h,"[4]; blood, read-out: Blood uptake",0.5 ± 0.09 %ID/g
same,tissue uptake at 1 h,"[4]; bone, read-out: Bone uptake",0.12 ± 0.01 %ID/g
same,tissue uptake at 1 h,"[4]; brain, read-out: Brain uptake",0.04 ± 0.01 %ID/g
same,tissue uptake at 1 h,"[4]; fat, read-out: Fat uptake",0.05 ± 0.01 %ID/g
same,tissue uptake at 1 h,"[4]; heart, read-out: Heart uptake",0.16 ± 0.02 %ID/g
same,tissue uptake at 1 h,"[4]; kidneys, read-out: Kidneys uptake",2.26 ± 0.26 %ID/g
same,tissue uptake at 1 h,"[4]; large intestine, read-out: Large intestine uptake",2.2 ± 0.89 %ID/g
same,tissue uptake at 1 h,"[4]; liver, read-out: Liver uptake",2.1 ± 0.45 %ID/g
same,tissue uptake at 1 h,"[4]; lungs, read-out: Lungs uptake",1.18 ± 0.23 %ID/g
same,tissue uptake at 1 h,"[4]; muscle, read-out: Muscle uptake",0.18 ± 0.1 %ID/g
same,tissue uptake at 1 h,"[4]; pancreas, read-out: Pancreas uptake",37.3 ± 6.9 %ID/g
same,tissue uptake at 1 h,"[4]; small intestine, read-out: Small intestine uptake",6.03 ± 1.07 %ID/g
same,tissue uptake at 1 h,"[4]; spleen, read-out: Spleen uptake",0.33 ± 0.17 %ID/g
same,tissue uptake at 1 h,"[4]; stomach, read-out: Stomach uptake",1.42 ± 0.57 %ID/g
same,tissue uptake at 1 h,"[4]; testes, read-out: Testes uptake",0.13 ± 0.01 %ID/g
same,tissue to tissue ratio at 1 h,"[4]; tumor and bone, read-out: Tumor/bone uptake ratio",61 ± 15.5
same,tissue to tissue ratio at 1 h,"[4]; tumor and kidney, read-out: Tumor/kidney uptake ratio",3.09 ± 0.51
same,tissue to tissue ratio at 1 h,"[4]; tumor and muscle, read-out: Tumor/muscle uptake ratio",48.2 ± 24.9
same,tissue to tissue ratio at 1 h,"[4]; tumor and pancreas, read-out: Tumor/pancreas uptake ratio",0.19 ± 0.03
same,tissue to tissue ratio at 1 h,"[4]; tumor and whole blood, read-out: Tumor/blood uptake ratio",14.4 ± 3.88
D-Phe-Gln-Trp-Ala-Val-Gly-His-Leu-NHOH [C-terminal hydroxamate-derived GRPR-targeted antagonist reported by Devin et al],Ki,[5],5.8 nM
Ga-DOTA-Pip-D-Phe-Gln-Trp-Ala-Val-Gly-His-Leu-NHOH [Ga-LW02050],Ki,[6],8.53 ± 1.52 nM
same,"Ca2+ mobilization, relative fluorescence units (RFUs = max − min)",[1],25.8 ± 7.95 RFUs
same,Agonist/antagonist characteristics,"[1]; 50 nM, calcium release assay",antagonist
"Ga-DOTA-pABzA-DIG-D-Phe-Gln-Trp-Ala-Val-Gly-His-Leu-NHEt [Ga-SB3, reference compound]",Ki,[6],1.2 ± 0.31 nM
"[D-Phe^6,Leu-NHEt^13,des-Met^14]Bombesin(6-14)","Ca2+ mobilization, relative fluorescence units (RFUs = max − min)",[1],47.2 ± 6.61 RFUs
bombesin,"Ca2+ mobilization, relative fluorescence units (RFUs = max − min)",[1],371 ± 65.0 RFUs
